Here are results for four molecules from patent US7314709B2, “Compositions and methods for detecting and quantifying COX-2 activity by lipoamino acid metabolism” (Vanderbilt University, priority 2002, dated 2008).

Series [1] deals with T1, ovine COX-1 (oCOX-1) (Ovis aries, UniProt P05979).
T1 construct: COX-1 was purified from ram seminal vesicles as previously described; tissue Oxford Biomedical Research; host or cells: ram seminal vesicles
T1 sequence (P05979 25-600): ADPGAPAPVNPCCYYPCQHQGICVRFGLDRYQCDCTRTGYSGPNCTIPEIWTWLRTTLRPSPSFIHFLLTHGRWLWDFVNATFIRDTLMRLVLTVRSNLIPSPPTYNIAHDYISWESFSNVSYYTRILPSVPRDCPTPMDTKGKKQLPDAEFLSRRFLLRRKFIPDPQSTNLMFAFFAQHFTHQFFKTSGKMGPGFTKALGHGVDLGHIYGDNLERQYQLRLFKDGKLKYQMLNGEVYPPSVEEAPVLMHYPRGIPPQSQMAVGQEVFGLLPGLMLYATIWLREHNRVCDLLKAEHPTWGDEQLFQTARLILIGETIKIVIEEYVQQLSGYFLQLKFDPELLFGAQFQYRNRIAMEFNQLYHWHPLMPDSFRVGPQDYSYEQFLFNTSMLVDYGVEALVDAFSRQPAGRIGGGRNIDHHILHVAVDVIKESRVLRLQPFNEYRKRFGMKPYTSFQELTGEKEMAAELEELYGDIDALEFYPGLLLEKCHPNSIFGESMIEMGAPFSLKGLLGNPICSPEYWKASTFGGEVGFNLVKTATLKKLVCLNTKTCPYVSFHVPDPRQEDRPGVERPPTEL
The note with it: compared with AA; cited from earlier work.

For series [2] the following is noted: rats [16,17]; cited from earlier work.
The conditions of series [3]: mice [16,17]; cited from earlier work.
Substrate in series [4]: CCCCC/C=C\C/C=C\C/C=C\C/C=C\CCCCNCC(=O)O
The series is described as follows: Steady-state kinetics of COX-2 mediated oxygenation (oxygraph O2 uptake). The format is biochemical, murine. The settings on record: other: 50 nM COX-2, 100 mM Tris-HCl, 500 μM phenol. The method, then: (§1) Enzymology: COX-1 was purified from ram seminal vesicles as previously described. Site-directed mutagenesis of COX-2 was performed as described previously. Recombinant COX-2 enzymes were expressed in Sf-9 insect cells and purified by ion-exchange chromatography and gel filtration as previously described. Apo-enzymes were reconstituted with hematin prior to activity assays. […] COX activity was quantified as previously described. Initial reaction velocity data were obtained from the linear portion of the oxygen uptake curves. Oxygraph data were analyzed by nonlinear regression with Enzyme Kinetics 1.5 software (Trinity Software, Campton, N.H.).

Substrate in series [5]: CCCCC/C=C\C/C=C\C/C=C\C/C=C\CCCC(=O)O
The description is as above. The note with it: other: 50 nM COX-2, 100 mM Tris-HCl, 500 μM phenol. The format is biochemical, murine. The method, then: as §1

In the case of `CCCCC/C=C\C/C=C\C/C=C\C/C=C\CCCC(=O)OC(CO)CO` [2-AG, 2-arachidonlyglycerol], in series [1], the “metabolism by COX-1” value is “much lesser extent than AA”.
Regarding `CCCCC/C=C\C/C=C\C/C=C\C/C=C\CCCC(=O)NCCO` [AEA, arachidonyl ethanolamide], in series [1], the “metabolism by COX-1” value is listed as “much lesser extent than AA”.
`CCCCC/C=C\C/C=C\C/C=C\C/C=C\CCCC(=O)NCCCC(=O)O` [δ-arachidonyl aminobutuyic acid]: the “formalin-induced tonic inflammatory pain” value in series [2] is “suppresses formalin-induced tonic inflammatory pain”. Besides, in series [3], the analgesia entry is “induce analgesia”.

B1: Murine COX-2 (Mus musculus) (protein)
chain: ANPCCSNPCQNRGECMSTGFDQYKCDCTRTGFYGENCTTPEFLTRIKLLLKPTPNTVHYILTHFKGVWNIVNNIPFLRSLIMKYVLTSRSYLIDSPPTYNVHYGYKSWEAFSNLSYYTRALPPVADDCPTPMGVKGNKELPDSKEVLEKVLLRREFIPDPQGSNMMFAFFAQHFTHQFFKTDHKRGPGFTRGLGHGVDLNHIYGETLDRQHKLRLFKDGKLKYQVIGGEVYPPTVKDTQVEMIYPPHIPENLQFAVGQEVFGLVPGLMMYATIWLREHNRVCDILKQEHPEWGDEQLFQTSRLILIGETIKIVIEDYVQHLSGYHFKLKFDPELLFNQQFQYQNRIASEFNTLYHWHPLLPDTFNIEDQEYSFKQFLYNNSILLEHGLTQFVESFTRQIAGRVAGGRNVPIAVQAVAKASIDQSREMKYQSLNEYRKRFSLKPYTSFEELTGEKEMAAELKALYSDIDVMELYPALLVEKPRPDAIFGETMVELGAPFSLKGLMGNPICSPQYWKPSTFGGEVGFKIINTASIQSLICNNVKGCPFTSFNVQDPQPTKTATINASASHSRLDDINPTVLIKRRSTEL
notes: made in house; host or cells: Sf-9 insect cells
On to B1, for which, in series [4], the Km was determined as 11.7 ± 1.4 µM, the turnover number (kcat) was 6.3 ± 1.1 s⁻¹ and the kcat/Km was determined as 540000 M⁻¹ s⁻¹. In series [5], the Km turned out to be 3.3 ± 1.0 µM, the kcat was found to be 16.6 ± 1.7 s⁻¹ and the kcat/Km is 5.08e+06 M⁻¹ s⁻¹.
